US20140363844

Experiments:
[1] = target: T1, Dianthus Precursor A[14,33]
T1 chain: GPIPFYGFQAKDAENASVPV

Presegetalin A1[14,19] = target: T2, Presegetalin A1[14,19]
T2 chain: GVPVWA

Presegetalin A1[14,20] = target: T3, Presegetalin A1[14,20]
T3 chain: GVPVWAF

Presegetalin A1[14,24] = target: T4, Presegetalin A1[14,24]
T4 chain: GVPVWAFQAKD

Presegetalin A1[14,30] = target: T5, Presegetalin A1[14,30]
T5 chain: GVPVWAFQAKDVENAPV

[2] = target: T6, Presegetalin A1[14,32] P16p W18a
T6 chain: GVPVAAFQAKDVENASAPV

[3] = target: T7, Presegetalin A1[14,32] ins 16AAA17
T7 chain: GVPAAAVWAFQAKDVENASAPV

[4] = target: T8, Presegetalin A1[14,32]A19V
T8 chain: GVPVWVFQAKDVENASAPV

[5] = target: T9, Presegetalin A1[14,32]A19a
T9 chain: GVPVWAFQAKDVENASAPV

[6] = target: T10, Presegetalin A1[14,32]A22V
T10 chain: GVPVWAFQVKDVENASAPV

[7] = target: T11, Presegetalin A1[14,32]A28V
T11 chain: GVPVWAFQAKDVENVSAPV

[8] = target: T12, Presegetalin A1[14,32]A30V
T12 chain: GVPVWAFQAKDVENASVPV

[9] = target: T13, Presegetalin A1[14,32]D24A
T13 chain: GVPVWAFQAKAVENASAPV

[10] = target: T14, Presegetalin A1[14,32]E26A
T14 chain: GVPVWAFQAKDVANASAPV

[11] = target: T15, Presegetalin A1[14,32]F20A
T15 chain: GVPVWAAQAKDVENASAPV

[12] = target: T16, Presegetalin A1[14,32]G14A
T16 chain: AVPVWAFQAKDVENASAPV

Presegetalin A1[14,32] = target: T17, Presegetalin A1[14,32]
T17 chain: GVPVWAFQAKDVENASAPV

B1: Saponaria vaccaria PCY1 (recombinant, N-terminal His6-tag, expressed in E. coli from pCB008) (protein)
chain: MATSGFSKPLHYPPVRRDETVVDDYFGVKVADPYRWLEDPNSEETKEFVDNQEKLANSVLEECELIDKFKQKIIDFVNFPRCGVPFRRANKYFHFYNSGLQAQNVFQMQDDLDGKPEVLYDPNLREGGRSGLSLYSVSEDAKYFAFGIHSGLTEWVTIKILKTEDRSYLPDTLEWVKFSPAIWTHDNKGFFYCPYPPLKEGEDHMTRSAVNQEARYHFLGTDQSEDILLWRDLENPAHHLKCQITDDGKYFLLYILDGCDDANKVYCLDLTKLPNGLESFRGREDSAPFMKLIDSFDASYTAIANDGSVFTFQTNKDAPRKKLVRVDLNNPSVWTDLVPESKKDLLESAHAVNENQLILRYLSDVKHVLEIRDLESGALQHRLPIDIGSVDGITARRRDSVVFFKFTSILTPGIVYQCDLKNDPTQLKIFRESVVPDFDRSEFEVKQVFVPSKDGTKIPIFIAARKGISLDGSHPCEMHGYGGFGINMMPTFSASRIVFLKHLGGVFCLANIRGGGEYGEEWHKAGFRDKKQNVFDDFISAAEYLISSGYTKARRVAIEGGSNGGLLVAACINQRPDLFGCAEANCGVMDMLRFHKFTLGYLWTGDYGCSDKEEEFKWLIKYSPIHNVRRPWEQPGNEETQYPATMILTADHDDRVVPLHSFKLLATMQHVLCTSLEDSPQKNPIIARIQRKAAHYGRATMTQIAEVADRYGFMAKALEAPWID
For B1, the “CP (cyclic peptide product detected by LC/MS)” value (from here on “CP”) [1] was “+”, the “LP (linear peptide product detected by LC/MS)” value (“LP” for short) [1] was “-” and the “cyclic peptide product (LC/MS, MS/MS)” value [1] was “there was a small amount of cyclic peptide production from No. 43”. The “CP” value (Presegetalin A1[14,19]) was “-”, the “CP” value (Presegetalin A1[14,20]) was “-” and the “LP” value (Presegetalin A1[14,20]) was “-”. For the same protein, the “CP” value (Presegetalin A1[14,24]) was “-”, the “LP” value (Presegetalin A1[14,24]) was “+” and the “linear peptide formation (LC/MS, MS/MS)” value (Presegetalin A1[14,24]) was “showed linear peptide formation almost equivalent to the linear peptide formed from the WT substrate (No. 1)”. The “CP” value (Presegetalin A1[14,30]) was “-”, the “LP” value (Presegetalin A1[14,30]) was “+” and the “linear peptide formation (LC/MS, MS/MS)” value (Presegetalin A1[14,30]) was “showed linear peptide formation almost equivalent to the linear peptide formed from the WT substrate (No. 1)”. The “CP” value [2] was “+”, the “LP” value [2] was “-” and the “CP” value [3] was “+”. The “LP” value [3] was “+”, the “CP” value [4] was “-” and the “LP” value [4] was “-”. For the same protein, the “CP” value [5] was “-”, the “LP” value [5] was “-” and the “CP” value [6] was “+”. The “LP” value [6] was “+”, the “linear segetalin A production relative to WT substrate” value [6] was “showed a relative increase in production of linear segetalin A” and the “CP” value [7] was “+”. For the same protein, the “LP” value [7] was “+”, the “linear segetalin A production relative to WT substrate” value [7] was “showed a relative increase in production of linear segetalin A” and the “segetalin A production relative to WT substrate” value [7] was “positions were found to be sensitive to substitution ... position 20, 21, 23, 24, 27, 28 and 31”. For the same protein, the “CP” value [8] was “+”, the “LP” value [8] was “+” and the “linear segetalin A production relative to WT substrate” value [8] was “showed a relative increase in production of linear segetalin A”. For the same protein, the “CP” value [9] was “+”, the “LP” value [9] was “+” and the “linear segetalin A production relative to WT substrate” value [9] was “showed a relative increase in production of linear segetalin A”. The “segetalin A production relative to WT substrate” value [9] was “segetalin A production was found to be ≧42 times lower than the WT substrate”, the “CP” value [10] was “+” and the “LP” value [10] was “+”. The “linear segetalin A production relative to WT substrate” value [10] was “showed a relative increase in production of linear segetalin A”, the “segetalin A production relative to WT substrate” value [10] was “substitutions at positions 25, 26 and 29 (No. 18, 19 and 22) yielded relatively higher amounts of segetalin A than that produced from WT substrate” and the “CP” value [11] was “+”. For the same protein, the “LP” value [11] was “+”, the “linear segetalin A production relative to WT substrate” value [11] was “a relative increase in production of linear segetalin A from all mutant substrates except with No. 13 and No. 14” and the “segetalin A production relative to WT substrate” value [11] was “segetalin A production was found to be ≧42 times lower than the WT substrate”. For the same protein, the “CP” value [12] was “+”, the “LP” value [12] was “+” and the “linear peptide product in LC/MS” value [12] was “the highest amount of linear peptide product was detected with No. 7”. The “relative intensity of cyclic peptide product in LC/MS” value [12] was “makes less product (cyclic peptide) with the substitution of glycine to alanine at the first position in segetalin A (No. 7) than with No. 8 to 11” and the “CP” value (Presegetalin A1[14,32]) was “+”.
